Test: yeast display, Sf9 membrane polyspecificity reagent, FACS + sequencing; frameworks hold sequencing errors
Summary of the method: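 Galactose-induced (36–48 hours) yeast carrying a synthetic nanobody display library were exposed to 10% biotinylated, detergent-solubilized Sf9 membrane reagent at 4 °C for 1 hour. FACS followed streptavidin microbead enrichment, using low and high (top ~1%) gates for expression (anti-HA) and reagent binding (streptavidin). Colony PCR, MiSeq 2 × 250 sequencing and CDR-length filtering followed. Labels for polyreactivity reflect the gate of origin.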

| Sequence | polyreactivity (PSR sort gate) |
| --- | --- |
| QDQLVESGGGLVQAGGSLRLSCAASGSTFQWYAMVWYRQAPGKERELVAAINKSGGTTYYADSVKGRFTISRDNAKNTVYLQMNRLKPEDTAVYYCATDNPVVYQPGNLDYWVQGTQVTVSS | low polyreactivity |
| QDQLVESGGGLVQAGGSLRLSCAASGSTFRGNAKGWYRQAPGKERELVAAITGSGGRRYYADSVKGRFTISRDYAKNTVYLQMNSLKPEDTAVYYCAAVYYGYRDRTDYGYWGQGTQVTVSS | high polyreactivity |
| QDQLVESGGGLVQAGGSLRLSCAASGSTFSDNTMGWYRQAPGKERELVAANTTIGGSTYYADSVKGRFTISRDNAKNTVSVQMISLKPEDTAVYYCAAVDFTSQYYDLYIYWGQGTQVTVSS | low polyreactivity |
| QDQLVESGGGLVQAGGSLRLSCAASGSTFTPNALGWYRQPPGKQRELVAAISTRGSSTYYADSVKGRFTISRDNAKNTVYLQMNRLKPEDTAVYSCAAPFKYGLSYGSWYGYCGQGTQVTVSS | high polyreactivity |
| QDQLVESGGGLVQAGGSLRLSCAASGSTFYIYAMGWNIQAPGKERELVAAISTTDGTTYYADSVKGRFTISRDNAKKTVYLQMNSLKPEDTAVYYCAAEWFGSVQPAYDYWGQVTQVTVSS | high polyreactivity |
| QDQLVESGGGLVQAGGSLRLSCAASGSTFYYNAMGLYRQAPGKEREVVARISRSGGSTYADSVKGRFTISRDNAKNTVYLQMNSLKPEDTAVYYCNADAYGTPEFTSYAVRYDYWGQGTQVTVSS | low polyreactivity |
| QDQLVESGGGLVQAGGSLRLSCAASGVTFVTYAMGGSRQAPGKERELVAAITTGGSTNYADSVKGRFTISRDNAKNTVYLQMNSLKPEDTAVYYCAAQRVSVLLFVRHDYWGQGTQVTVSS | low polyreactivity |
| QDQLVESGGGLVQAGGSLRLSCAASGYTFKAYAMVWYRQAPGKERELVDAISRGGRTNYADSVKGRFTISRDNAKNTVYLQMNSLKPEDTAVYYCNTQRQLGVRFYDRSRQGDYWGQGTQVTVSS | high polyreactivity |
| QDQLVESGGGLVQAGGSLRLSCAASGYTFSYYAMGWYRQAPGKERELVAAITSTGSTYYADSVKGRFTISRDYAKNTVYLQMNILKPEDTAVYYCNVDDATVGPVDYWGQGTQVTVSS | low polyreactivity |
| QDQLVESGGGLVQAGGSLRLSCAASRLTFYVYAMGWYRQAPGKERELVAAISGRGGRTYYADSVKGRFTISRDNAKNTVYLQMNSLKPEDTAVYDCAPRYPRYRYVEYGYNYWGQGTQVTVSS | high polyreactivity |
| QDQLVESGGGLVQAGGSLRLSCAASVFIFYSYTRGWYRQAPGKERELVATISSNGGRTYYADSVKGRFTISRDNAKNTVYLQMNSLKPEDTAVYYCATDVPHGYYWSYGDYYCGQGTQVTVSS | low polyreactivity |
| QDQLVESGGGLVQAGGSLRLSCAASVSIFASYAMGRYRPAPGKERELVAAISSRGSRTYYADSVKGRFTISRDNAKNTVYLQMNRLKPQDTAVYYCAAYSPDYYNAEFGYWGQGTHVTVSS | high polyreactivity |
| QDQLVESGGGLVQAGGSLRLSCASSGFTIVYYAMGWYRQAPGKERELVADISSYGSTYADSVKGRFTISRDNAKNTVYLLMNSLKPEDTAVYYCAAEYIYQPHYGYYYWGQGTQVTVSS | high polyreactivity |
| QDQLVESGGGLVQAGGSLRLSCRASGFTFTHYAMGWSRKAPGKERELVAAIDRSGDSTYYADSVKGRFTISRDNAKNTVYLQMNSLKPEDTAVYYSAADLFDSLIWVYWTYVARFDYWGQGTQVTVSS | low polyreactivity |
| QDQLVESGGGLVQAGGSLRLSCSASGSIVGLYAMGWYRQAPGKERELVAAITASDGYTYYADSVKGRFTNSRDNAKNTVYLQMNSLKPEDTAVYYCNADAYSGYFLFDYWGQGTQVNVSS | low polyreactivity |
| QDQLVESGGGLVQAGGSLRLSCSAYGSILKNNAMGLYIQSPGQERELVAAISSDGSTNYADSVKGRFRISRDNAKNTVYLQMNSLKPEDTAVYYCAAHDNGAWVRMDYWGQGTQVTVSS | low polyreactivity |
| QDQLVESGGGLVQAGGSLRLSFAASGATFKRYAMGWYRQAPGKERELVATINSGTSTNYADSVKGRFTISRDNAKNTVYLQMNSLKPEDTAVYYCAKTFRRSVGGYGYDYWGQGTQVTVSS | low polyreactivity |

Reference: the nanobody polyreactivity screen of Harvey et al. (2022)
